Test results from PMC10011603, “TRAK adaptors regulate the recruitment and activation of dynein and kinesin in mitochondrial transport” (Nature Communications, 2023).

What was measured:
[1] = target: T1, full-length TRAK2 (TRAK2^1–914) (human, UniProt O60296 1-914); test: co-IP; purified proteins, 10 µg each, GFP-Trap beads, MB buffer with 100 mM NaCl and BSA; KIF5B-GFP-SNAPf, Miro1 1-592 and TRAK1 1-532, full-length TRAK1 or full-length TRAK2; with GTPγS or GDP; 0, 100 nM or 2 mM Ca2+; settings: both partners purified
T1 construct: TRAK2, human, residues 1-914, full length; source: HEK 293 F GNTI-/- cells, PEI transfection, purified (TRAK purification procedure); not shown: His6-ZZ, N-terminal, cleaved; SNAP-tag or GFP, C-terminal, kept
T1 sequence (looked up): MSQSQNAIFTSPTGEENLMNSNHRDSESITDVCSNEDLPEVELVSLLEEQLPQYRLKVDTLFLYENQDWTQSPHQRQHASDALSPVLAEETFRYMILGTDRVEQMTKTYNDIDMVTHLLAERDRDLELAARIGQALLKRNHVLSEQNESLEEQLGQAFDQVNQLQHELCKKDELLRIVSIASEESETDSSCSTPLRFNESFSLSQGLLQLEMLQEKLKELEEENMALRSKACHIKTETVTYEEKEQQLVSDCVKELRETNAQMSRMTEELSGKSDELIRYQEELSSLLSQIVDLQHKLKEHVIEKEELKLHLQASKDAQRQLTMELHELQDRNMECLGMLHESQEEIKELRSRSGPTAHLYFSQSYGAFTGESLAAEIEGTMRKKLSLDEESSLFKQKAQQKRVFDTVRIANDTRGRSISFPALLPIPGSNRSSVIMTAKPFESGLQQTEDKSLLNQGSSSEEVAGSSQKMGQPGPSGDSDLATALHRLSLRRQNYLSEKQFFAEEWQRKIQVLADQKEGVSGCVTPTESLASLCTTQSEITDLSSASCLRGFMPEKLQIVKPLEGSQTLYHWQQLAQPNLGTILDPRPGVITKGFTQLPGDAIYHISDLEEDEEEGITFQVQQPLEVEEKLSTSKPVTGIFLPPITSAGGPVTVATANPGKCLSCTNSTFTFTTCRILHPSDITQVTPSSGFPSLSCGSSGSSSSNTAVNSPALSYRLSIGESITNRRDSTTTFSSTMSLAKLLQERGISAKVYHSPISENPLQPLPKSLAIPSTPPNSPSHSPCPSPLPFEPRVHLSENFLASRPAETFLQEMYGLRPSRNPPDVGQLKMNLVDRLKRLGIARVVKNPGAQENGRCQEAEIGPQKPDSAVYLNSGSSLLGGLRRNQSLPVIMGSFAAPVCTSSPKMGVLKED

[2] = target: T2, full-length TRAK1 (TRAK1^1–953) (human, UniProt Q9UPV9 1-953); test: single-molecule TIRF colocalisation on microtubules; three-colour imaging of Alexa488-KIF5B, LD555-TRAK1 1-532 (or full-length TRAK1) and LD655-Miro1 1-592; 10 nM MAP7; 0, 0.1 and 2 mM Ca2+; settings: both partners purified
T2 construct: TRAK1, human, residues 1-953, full length; source: HEK 293 F GNTI-/- cells, PEI transfection, purified (TRAK purification procedure); not shown: His6-ZZ, N-terminal, cleaved; SNAP-tag or GFP, C-terminal, kept
T2 sequence (looked up): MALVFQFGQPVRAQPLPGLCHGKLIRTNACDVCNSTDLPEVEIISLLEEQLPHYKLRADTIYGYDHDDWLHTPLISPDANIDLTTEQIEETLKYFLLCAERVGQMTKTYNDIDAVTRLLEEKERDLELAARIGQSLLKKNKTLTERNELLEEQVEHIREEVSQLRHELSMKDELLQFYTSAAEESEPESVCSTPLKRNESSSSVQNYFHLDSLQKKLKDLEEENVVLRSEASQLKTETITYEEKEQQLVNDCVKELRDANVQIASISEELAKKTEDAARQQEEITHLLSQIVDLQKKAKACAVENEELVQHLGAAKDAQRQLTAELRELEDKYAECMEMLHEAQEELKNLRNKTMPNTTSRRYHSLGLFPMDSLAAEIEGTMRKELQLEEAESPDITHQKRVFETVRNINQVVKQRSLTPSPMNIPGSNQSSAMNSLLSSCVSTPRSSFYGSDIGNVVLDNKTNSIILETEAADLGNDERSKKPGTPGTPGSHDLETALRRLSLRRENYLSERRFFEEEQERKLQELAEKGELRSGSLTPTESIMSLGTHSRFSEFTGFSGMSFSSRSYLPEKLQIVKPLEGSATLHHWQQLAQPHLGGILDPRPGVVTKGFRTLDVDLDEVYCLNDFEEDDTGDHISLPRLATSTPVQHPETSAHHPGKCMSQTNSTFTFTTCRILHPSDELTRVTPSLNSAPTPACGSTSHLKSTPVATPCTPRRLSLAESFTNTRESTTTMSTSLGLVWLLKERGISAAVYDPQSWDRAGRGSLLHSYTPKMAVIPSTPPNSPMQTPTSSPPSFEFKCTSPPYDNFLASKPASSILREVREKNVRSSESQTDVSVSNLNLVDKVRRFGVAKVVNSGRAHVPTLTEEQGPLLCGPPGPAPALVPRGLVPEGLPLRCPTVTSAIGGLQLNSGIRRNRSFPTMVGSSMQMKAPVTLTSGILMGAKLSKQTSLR

binding result [1]: binds
binding result [2]: binds
B1: Miro1^1–592 (Miro1^1–592-SNAP-psc-StrepII) (domain or fragment, human, UniProt Q8IXI2 1-592, looked up)
chain: MKKDVRILLVGEPRVGKTSLIMSLVSEEFPEEVPPRAEEITIPADVTPERVPTHIVDYSEAEQSDEQLHQEISQANVICIVYAVNNKHSIDKVTSRWIPLINERTDKDSRLPLILVGNKSDLVEYSSMETILPIMNQYTEIETCVECSAKNLKNISELFYYAQKAVLHPTGPLYCPEEKEMKPACIKALTRIFKISDQDNDGTLNDAELNFFQRICFNTPLAPQALEDVKNVVRKHISDGVADSGLTLKGFLFLHTLFIQRGRHETTWTVLRRFGYDDDLDLTPEYLFPLLKIPPDCTTELNHHAYLFLQSTFDKHDLDRDCALSPDELKDLFKVFPYIPWGPDVNNTVCTNERGWITYQGFLSQWTLTTYLDVQRCLEYLGYLGYSILTEQESQASAVTVTRDKKIDLQKKQTQRNVFRCNVIGVKNCGKSGVLQALLGRNLMRQKKIREDHKSYYAINTVYVYGQEKYLLLHDISESEFLTEAEIICDVVCLVYDVSNPKSFEYCARIFKQHFMDSRIPCLIVAAKSDLHEVKQEYSISPTDFCRKHKMPPPQAFTCNTADAPSKDIFVKLTTMAMYPHVTQADLKSSTF
modifications: LD655 dye on the SNAP tag in motility assays
notes: mitochondrial Rho GTPase 1 (Miro1), human, residues 1-592, lacks the transmembrane domain; A PreScission site (psc) stands between SNAP and StrepII; no cleavage is told; also called Miro1^1–592-StrepII; Miro1^1–592-SNAPf-StrepII; source: purified (Streptactin Sepharose, eluted with desthiobiotin); not shown: SNAP, C-terminal, kept; StrepII, C-terminal, kept
